Measured values from the supplement of paper PMC9732359.
± gives the uncertainty stated by the source.

Assay: protein stability index of a GFP-peptide fusion (yeast GPS) (PSI 1-4); higher = more stable; sorted into four equal gates, so the index is relative within each strain
How it was run: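 Each library plasmid carries Cherry plus GFP with a tiled 17-residue yeast protein peptide fused downstream, and the pooled library was carried in yeast. Mid-log cultures in leucine-free medium were sorted into four equal gates by GFP/Cherry ratio. Reads from Illumina sequencing of PCR-amplified plasmids from each gate were assigned to strains by barcodes. Per peptide, the protein stability index was computed as the summed products of gate read frequency and gate number.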

Sequence	protein stability index (doa10∆)	protein stability index (pdr5∆)	protein stability index (san1∆)	protein stability index (ubr1∆)
TVTLNKNREVVQVSKAG [RRP45]	2.8 ± 0.092	2.98 ± 0.075	2.76 ± 0.065	2.82 ± 0.065
LNAELESKLIPQENDLE [SMC3]	3.12 ± 0.1	3.16 ± 0.076	3.23 ± 0.075	3.15 ± 0.057
LMVFNDDTKNQDSMSKG [YGR119C/NUP57]	3.04 ± 0.08	3.46 ± 0.16	2.94 ± 0.18	3.05 ± 0.071
SLFELIVPIFQLISAVL [YJL039C/NUP192]	1.86 ± 0.068	1.75 ± 0.051	1.7 ± 0.097	1.85 ± 0.037
EEIKTVDPASAPNHSPE [RRP6]	3.01 ± 0.096	2.96 ± 0.072	3.27 ± 0.068	3.19 ± 0.056
MAKDNLTNLLSQLNIQL [SRP72]	2.99 ± 0.077	3.13 ± 0.084	3.15 ± 0.074	2.96 ± 0.061
RRSKQLINLAKTRVGSV [RPC82]	3.25 ± 0.053	2.91 ± 0.062	2.95 ± 0.049	3.25 ± 0.044
EDAFNFWFDKLVTKILP [YCG1]	1.94 ± 0.21	2.5 ± 0.14	2.88 ± 0.12	2.94 ± 0.11
YSAAKKIPDTYTANTSA [YAR002W/NUP60]	2.43 ± 0.11	2.19 ± 0.082	2.2 ± 0.077	2.55 ± 0.038
MKLVNFLKKLRNEQVTI [SMD1]	1.87 ± 0.17	1.93 ± 0.095	2.04 ± 0.14	2.5 ± 0.11
KTTPNTASSEASAGSKE [YMR153W/NUP53]	2.98 ± 0.052	3.34 ± 0.061	3.16 ± 0.046	3.12 ± 0.038
SKRYIPSVNDFVIGVII [RRP40]	2.4 ± 0.054	2.66 ± 0.056	2.17 ± 0.078	2.73 ± 0.054
EGVEYLREYLNLPEHIV [RPS10A]	3.31 ± 0.081	3.32 ± 0.078	3.2 ± 0.072	3 ± 0.087
DISGTMSGGGNHVAKGL [SMC4]	3.19 ± 0.2	–	3.25 ± 0.13	–
VAATITSSQKEPFFLVT [SRB8]	1.8 ± 0.071	2.17 ± 0.086	2.12 ± 0.083	2.21 ± 0.075
TDVKLTLPQPRLNKLNS [SMD1]	2.73 ± 0.066	2.79 ± 0.059	2.1 ± 0.071	2.73 ± 0.059
VNNTRRRVYNRVLETTL [BRN1]	2.5 ± 0.07	2.98 ± 0.094	2.87 ± 0.1	2.65 ± 0.11
PKVPVSAAATPSLNKTI [GAL11]	2.5 ± 0.039	2.77 ± 0.033	2.67 ± 0.035	2.63 ± 0.036
RADTMDFKTDVDEPMTS [YJL039C/NUP192]	3.26 ± 0.087	3.28 ± 0.089	3.25 ± 0.11	3.3 ± 0.066
PKKHLSETADETLENNI [RPN11]	3.15 ± 0.1	3.13 ± 0.098	3.17 ± 0.077	2.84 ± 0.088
PGEFVTAIAHSIREQVH [SNF5]	2.27 ± 0.08	2.13 ± 0.047	1.94 ± 0.054	2.29 ± 0.047
PNSERSGTPTLKKNIEP [YOR098C/NUP1]	3.32 ± 0.14	3.26 ± 0.097	2.72 ± 0.24	3.07 ± 0.082
DKQAEGTPLFTFGKKAD [YOR098C/NUP1]	2.43 ± 0.06	2.43 ± 0.078	2.5 ± 0.077	1.75 ± 0.066
FNRENKVSPADAAKKAL [RPS26A]	3.42 ± 0.13	3.01 ± 0.14	3.17 ± 0.048	3.4 ± 0.073
NTLEFIIEQLSIAAERY [YCG1]	2.29 ± 0.052	2.62 ± 0.072	2.16 ± 0.066	2.39 ± 0.036
AASAAGYDRHITIFSPE [SCL1]	2.86 ± 0.11	2.76 ± 0.075	2.87 ± 0.064	2.95 ± 0.051
QLHFSLLDEEAEQSFDQ [RPO21]	2.51 ± 0.11	2.77 ± 0.14	3.29 ± 0.1	2.64 ± 0.22

Sequence	protein stability index (doa10∆)	protein stability index (pdr5∆)	protein stability index (san1∆)	protein stability index (ubr1∆)
RDIEKITSLYALIRRDF [CDC53]	2.1 ± 0.035	1.89 ± 0.03	1.84 ± 0.05	1.75 ± 0.021
GWKPYYKLFIWLVVPTI [YML031W/NDC1]	1.28 ± 0.049	1.2 ± 0.044	1.19 ± 0.09	1.16 ± 0.044
LKFMAASEVATHSKLFA [PRP8]	2.91 ± 0.085	3.07 ± 0.082	2.78 ± 0.062	2.7 ± 0.073
GLSKEDDVRDFVIRREV [RPS6A]	3.42 ± 0.094	3.42 ± 0.081	3.13 ± 0.13	3.68 ± 0.15
NSITSGGLKSCDLDFPL [YDL116W/NUP84]	2.78 ± 0.078	3.11 ± 0.068	3.32 ± 0.072	3.2 ± 0.063
GQEYPRIIGLSATLPNY [BRR2]	1.9 ± 0.047	2.2 ± 0.044	1.96 ± 0.057	1.81 ± 0.046
DNEGVASKSKKKFNMGK [RPC53]	3.33 ± 0.091	3.12 ± 0.13	3.15 ± 0.08	3.42 ± 0.08
LDEDDTNDGIERYSDKY [RPC31]	3.32 ± 0.14	3.4 ± 0.12	3.22 ± 0.11	3.26 ± 0.074
EIMEERNVEQKLNELDE [NNF1]	3.11 ± 0.08	2.94 ± 0.077	3.13 ± 0.052	3.27 ± 0.045
SGNNYNDINISSIENNI [MED2]	3.01 ± 0.039	3.02 ± 0.036	2.89 ± 0.032	3.151 ± 0.031
LQDELHKVSSQSTNLNR [YCS4]	2.97 ± 0.061	3.06 ± 0.068	3.05 ± 0.045	2.87 ± 0.053
EVIGYIAAGTYGKVYKA [SSN3]	2.01 ± 0.05	2.25 ± 0.042	2.17 ± 0.069	1.9 ± 0.045
ELVFSKGVYLILSEILC [YML103C/NUP188]	1.93 ± 0.049	1.54 ± 0.048	1.71 ± 0.07	1.51 ± 0.026
GSAINHHRIFDSSAHFK [YMR129W/POM152]	2.57 ± 0.049	2.46 ± 0.062	2.64 ± 0.075	2.71 ± 0.039
EQKITEIEDGQDGGVTP [RPO21]	3.36 ± 0.081	3.38 ± 0.067	3.37 ± 0.048	3.31 ± 0.067
ILKRDFELVSDLSYIEF [ECM29]	2.54 ± 0.079	2.67 ± 0.078	2.58 ± 0.072	2.76 ± 0.054
ASGLLRAYLSHSNRCIV [CSN12]	1.85 ± 0.04	1.56 ± 0.04	1.7 ± 0.063	1.25 ± 0.027
QPLFSTVPEYLKTADNR [PGD1]	2.79 ± 0.088	2.6 ± 0.099	2.87 ± 0.075	2.96 ± 0.057
SASPHLAPNMQLNGNET [SNF2]	3.23 ± 0.041	2.96 ± 0.043	3.1 ± 0.025	3.256 ± 0.032
IKRMAIRNIVEAAAVRD [RPS26A]	1.29 ± 0.069	1.68 ± 0.097	1.83 ± 0.16	1.93 ± 0.055
QLIAKNVANVSGSTEKA [SIR3]	3.03 ± 0.085	3.04 ± 0.07	3.1 ± 0.054	2.88 ± 0.061
EPGHAADQEQAKLIRSA [RPO21]	3.2 ± 0.2	3.24 ± 0.2	2.69 ± 0.19	3.12 ± 0.1
CAMSGLTADARSMIEHA [PUP2]	2.3 ± 0.13	2.94 ± 0.18	–	2.64 ± 0.12
FIEDLAPEQQVQQFAQL [UBP6]	2.79 ± 0.059	3.02 ± 0.046	3.04 ± 0.049	2.98 ± 0.037
KLDKQINMADRSLGLQQ [POP6]	3.02 ± 0.12	3.46 ± 0.21	3.02 ± 0.16	3.62 ± 0.26
RMFEKNVMLNIYPRTVI [SKI6]	2.21 ± 0.14	1.37 ± 0.11	1.06 ± 0.27	2.24 ± 0.094
